Test results: patent publication US20230183347A1

Molecular target: human PD-1 (hPD-1) expressed on T cells (DO11.10 T cell hybridomas, DO11.10 mouse CD4+ T cells, activated human CD4+ T cells) (human) (UniProt Q15116)
Assay: cell-based or functional assay

Chain of UniProt Q15116 (Q15116 25-288 limits assumed): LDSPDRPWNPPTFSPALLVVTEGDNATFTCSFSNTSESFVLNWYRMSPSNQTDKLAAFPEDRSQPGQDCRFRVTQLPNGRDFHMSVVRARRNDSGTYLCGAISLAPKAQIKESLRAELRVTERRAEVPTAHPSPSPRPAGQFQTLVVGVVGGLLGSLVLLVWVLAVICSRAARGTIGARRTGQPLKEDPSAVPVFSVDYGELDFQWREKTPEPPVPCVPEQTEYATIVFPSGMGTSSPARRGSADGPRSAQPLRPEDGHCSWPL

IC50 of inhibitory activity on IL-2 production: 1 µg/mL
Substance: anti-human PD-1 antibody (clone: J116, Invitrogen)
